The values that follow are results of earlier work, collected in article PMC9405863.

In the data set the target is Calmodulin (Homo sapiens) (UniProt P0DP23). Put plainly: ITC. In general terms: Isothermal titration calorimetry measures the heat released or taken up as one component is titrated into another.

For the substance “STIM1 K-rich domain (from UniProt Q13586)”, the Kd (as a rule, the equilibrium constant for the complex coming apart) was 800 nM.
Take “STIM2 K-rich domain (from UniProt Q9P246)”: the Kd is 900 nM.
